Source: US20220204580A1 (AstraZeneca / MedImmune, published 2022)
Numbered stars: 1 amine (or outer) side, 2 acyl side, 3 side chain; on linkers, the order of the positions; unused ones are H or OH. Bridge positions count the residues as written; N and C are the ends. Square brackets hold non-standard residues; d marks the D form. Side chains are listed from the residue outwards. Ends that are not written are not given here. * marks the point of attachment. C18 diacid = O=C(O)CCCCCCCCCCCCCCCCC(=O)*; γGlu = O=C(O)[C@H](CCC(=O)[*:2])N[*:1]; Aib = CC(C)(N)C(=O)O

T1: human amylin receptor (calcitonin receptor co-expressed with receptor activity modifying protein, RAMP3) (human, UniProt P30988 25-474; O60896 24-148)
T1 sequence (looked up) 1: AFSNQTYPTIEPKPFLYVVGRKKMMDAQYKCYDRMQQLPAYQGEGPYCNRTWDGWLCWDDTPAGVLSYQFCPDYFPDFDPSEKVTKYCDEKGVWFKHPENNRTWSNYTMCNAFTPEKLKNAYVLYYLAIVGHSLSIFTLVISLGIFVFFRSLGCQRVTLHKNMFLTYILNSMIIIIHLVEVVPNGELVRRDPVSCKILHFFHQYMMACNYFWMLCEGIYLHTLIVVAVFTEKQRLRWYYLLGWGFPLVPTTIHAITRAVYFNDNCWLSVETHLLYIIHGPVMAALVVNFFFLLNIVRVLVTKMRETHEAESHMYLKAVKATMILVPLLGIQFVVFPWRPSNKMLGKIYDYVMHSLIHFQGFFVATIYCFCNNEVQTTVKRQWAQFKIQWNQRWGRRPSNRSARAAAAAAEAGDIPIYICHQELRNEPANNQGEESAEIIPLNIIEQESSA
T1 sequence (looked up) 2: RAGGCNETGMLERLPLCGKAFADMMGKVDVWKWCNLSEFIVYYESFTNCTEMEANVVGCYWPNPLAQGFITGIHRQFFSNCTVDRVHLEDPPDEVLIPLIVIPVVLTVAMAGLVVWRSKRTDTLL

T2: human calcitonin receptor (human, UniProt P30988 25-474)
T2 sequence (looked up): T1 sequence (looked up) 1

B1: Peptide 139 (SEQ ID NO: 139) (peptide)
peptide: K([γGlu-C18 diacid])KCNTATCATQRLANFL[Aib]HSSPNFGPILPPTNVGSETY-NH2
modifications: disulfide 3-8; N-terminus assumed
SMILES: CC[C@H](C)[C@H](NC(=O)[C@@H]1CCCN1C(=O)CNC(=O)[C@H](Cc1ccccc1)NC(=O)[C@H](CC(N)=O)NC(=O)[C@@H]1CCCN1C(=O)[C@H](CO)NC(=O)[C@H](CO)NC(=O)[C@H](Cc1c[nH]cn1)NC(=O)C(C)(C)NC(=O)[C@H](CC(C)C)NC(=O)[C@H](Cc1ccccc1)NC(=O)[C@H](CC(N)=O)NC(=O)[C@H](C)NC(=O)[C@H](CC(C)C)NC(=O)[C@H](CCCNC(=N)N)NC(=O)[C@H](CCC(N)=O)NC(=O)[C@@H](NC(=O)[C@H](C)NC(=O)[C@@H]1CSSC[C@H](NC(=O)[C@H](CCCCN)NC(=O)[C@@H](N)CCCCNC(=O)CC[C@H](NC(=O)CCCCCCCCCCCCCCCCC(=O)O)C(=O)O)C(=O)N[C@@H](CC(N)=O)C(=O)N[C@@H]([C@@H](C)O)C(=O)N[C@@H](C)C(=O)N[C@@H]([C@@H](C)O)C(=O)N1)[C@@H](C)O)C(=O)N[C@@H](CC(C)C)C(=O)N1CCC[C@H]1C(=O)N1CCC[C@H]1C(=O)N[C@H](C(=O)N[C@@H](CC(N)=O)C(=O)N[C@H](C(=O)NCC(=O)N[C@@H](CO)C(=O)N[C@@H](CCC(=O)O)C(=O)N[C@H](C(=O)N[C@@H](Cc1ccc(O)cc1)C(N)=O)[C@@H](C)O)C(C)C)[C@@H](C)O
B2: Peptide 143 (SEQ ID NO: 143) (peptide)
peptide: K([γGlu-C18 diacid])GGKCNTATCATQRLANFL[Aib]HSSNNFGPILPPTNVGSNTY-NH2
modifications: disulfide 5-10; N-terminus assumed
SMILES: CC[C@H](C)[C@H](NC(=O)[C@@H]1CCCN1C(=O)CNC(=O)[C@H](Cc1ccccc1)NC(=O)[C@H](CC(N)=O)NC(=O)[C@H](CC(N)=O)NC(=O)[C@H](CO)NC(=O)[C@H](CO)NC(=O)[C@H](Cc1c[nH]cn1)NC(=O)C(C)(C)NC(=O)[C@H](CC(C)C)NC(=O)[C@H](Cc1ccccc1)NC(=O)[C@H](CC(N)=O)NC(=O)[C@H](C)NC(=O)[C@H](CC(C)C)NC(=O)[C@H](CCCNC(=N)N)NC(=O)[C@H](CCC(N)=O)NC(=O)[C@@H](NC(=O)[C@H](C)NC(=O)[C@@H]1CSSC[C@H](NC(=O)[C@H](CCCCN)NC(=O)CNC(=O)CNC(=O)[C@@H](N)CCCCNC(=O)CC[C@H](NC(=O)CCCCCCCCCCCCCCCCC(=O)O)C(=O)O)C(=O)N[C@@H](CC(N)=O)C(=O)N[C@@H]([C@@H](C)O)C(=O)N[C@@H](C)C(=O)N[C@@H]([C@@H](C)O)C(=O)N1)[C@@H](C)O)C(=O)N[C@@H](CC(C)C)C(=O)N1CCC[C@H]1C(=O)N1CCC[C@H]1C(=O)N[C@H](C(=O)N[C@@H](CC(N)=O)C(=O)N[C@H](C(=O)NCC(=O)N[C@@H](CO)C(=O)N[C@@H](CC(N)=O)C(=O)N[C@H](C(=O)N[C@@H](Cc1ccc(O)cc1)C(N)=O)[C@@H](C)O)C(C)C)[C@@H](C)O
B3: Peptide 142 (SEQ ID NO: 142) (peptide)
peptide: K([γGlu-C18 diacid])KCNTATCATQRLANFL[Aib]HSSNNFGPILPPTNVGSETY-NH2
modifications: disulfide 3-8; N-terminus assumed
SMILES: CC[C@H](C)[C@H](NC(=O)[C@@H]1CCCN1C(=O)CNC(=O)[C@H](Cc1ccccc1)NC(=O)[C@H](CC(N)=O)NC(=O)[C@H](CC(N)=O)NC(=O)[C@H](CO)NC(=O)[C@H](CO)NC(=O)[C@H](Cc1c[nH]cn1)NC(=O)C(C)(C)NC(=O)[C@H](CC(C)C)NC(=O)[C@H](Cc1ccccc1)NC(=O)[C@H](CC(N)=O)NC(=O)[C@H](C)NC(=O)[C@H](CC(C)C)NC(=O)[C@H](CCCNC(=N)N)NC(=O)[C@H](CCC(N)=O)NC(=O)[C@@H](NC(=O)[C@H](C)NC(=O)[C@@H]1CSSC[C@H](NC(=O)[C@H](CCCCN)NC(=O)[C@@H](N)CCCCNC(=O)CC[C@H](NC(=O)CCCCCCCCCCCCCCCCC(=O)O)C(=O)O)C(=O)N[C@@H](CC(N)=O)C(=O)N[C@@H]([C@@H](C)O)C(=O)N[C@@H](C)C(=O)N[C@@H]([C@@H](C)O)C(=O)N1)[C@@H](C)O)C(=O)N[C@@H](CC(C)C)C(=O)N1CCC[C@H]1C(=O)N1CCC[C@H]1C(=O)N[C@H](C(=O)N[C@@H](CC(N)=O)C(=O)N[C@H](C(=O)NCC(=O)N[C@@H](CO)C(=O)N[C@@H](CCC(=O)O)C(=O)N[C@H](C(=O)N[C@@H](Cc1ccc(O)cc1)C(N)=O)[C@@H](C)O)C(C)C)[C@@H](C)O
B4: Peptide 145 (SEQ ID NO: 145) (peptide)
peptide: K([γGlu-C18 diacid])KCNTATCATQRLANFL[Aib]HSSNNFGPILPPTNVGHNTY-NH2
modifications: disulfide 3-8; N-terminus assumed
SMILES: CC[C@H](C)[C@H](NC(=O)[C@@H]1CCCN1C(=O)CNC(=O)[C@H](Cc1ccccc1)NC(=O)[C@H](CC(N)=O)NC(=O)[C@H](CC(N)=O)NC(=O)[C@H](CO)NC(=O)[C@H](CO)NC(=O)[C@H](Cc1c[nH]cn1)NC(=O)C(C)(C)NC(=O)[C@H](CC(C)C)NC(=O)[C@H](Cc1ccccc1)NC(=O)[C@H](CC(N)=O)NC(=O)[C@H](C)NC(=O)[C@H](CC(C)C)NC(=O)[C@H](CCCNC(=N)N)NC(=O)[C@H](CCC(N)=O)NC(=O)[C@@H](NC(=O)[C@H](C)NC(=O)[C@@H]1CSSC[C@H](NC(=O)[C@H](CCCCN)NC(=O)[C@@H](N)CCCCNC(=O)CC[C@H](NC(=O)CCCCCCCCCCCCCCCCC(=O)O)C(=O)O)C(=O)N[C@@H](CC(N)=O)C(=O)N[C@@H]([C@@H](C)O)C(=O)N[C@@H](C)C(=O)N[C@@H]([C@@H](C)O)C(=O)N1)[C@@H](C)O)C(=O)N[C@@H](CC(C)C)C(=O)N1CCC[C@H]1C(=O)N1CCC[C@H]1C(=O)N[C@H](C(=O)N[C@@H](CC(N)=O)C(=O)N[C@H](C(=O)NCC(=O)N[C@@H](Cc1c[nH]cn1)C(=O)N[C@@H](CC(N)=O)C(=O)N[C@H](C(=O)N[C@@H](Cc1ccc(O)cc1)C(N)=O)[C@@H](C)O)C(C)C)[C@@H](C)O
B5: Peptide 141 (SEQ ID NO: 141) (peptide)
peptide: K([γGlu-C18 diacid])KCNTATCATQRLANFL[Aib]HSSNNFGPILPPTNVGSRTY-NH2
modifications: disulfide 3-8; N-terminus assumed
SMILES: CC[C@H](C)[C@H](NC(=O)[C@@H]1CCCN1C(=O)CNC(=O)[C@H](Cc1ccccc1)NC(=O)[C@H](CC(N)=O)NC(=O)[C@H](CC(N)=O)NC(=O)[C@H](CO)NC(=O)[C@H](CO)NC(=O)[C@H](Cc1c[nH]cn1)NC(=O)C(C)(C)NC(=O)[C@H](CC(C)C)NC(=O)[C@H](Cc1ccccc1)NC(=O)[C@H](CC(N)=O)NC(=O)[C@H](C)NC(=O)[C@H](CC(C)C)NC(=O)[C@H](CCCNC(=N)N)NC(=O)[C@H](CCC(N)=O)NC(=O)[C@@H](NC(=O)[C@H](C)NC(=O)[C@@H]1CSSC[C@H](NC(=O)[C@H](CCCCN)NC(=O)[C@@H](N)CCCCNC(=O)CC[C@H](NC(=O)CCCCCCCCCCCCCCCCC(=O)O)C(=O)O)C(=O)N[C@@H](CC(N)=O)C(=O)N[C@@H]([C@@H](C)O)C(=O)N[C@@H](C)C(=O)N[C@@H]([C@@H](C)O)C(=O)N1)[C@@H](C)O)C(=O)N[C@@H](CC(C)C)C(=O)N1CCC[C@H]1C(=O)N1CCC[C@H]1C(=O)N[C@H](C(=O)N[C@@H](CC(N)=O)C(=O)N[C@H](C(=O)NCC(=O)N[C@@H](CO)C(=O)N[C@@H](CCCNC(=N)N)C(=O)N[C@H](C(=O)N[C@@H](Cc1ccc(O)cc1)C(N)=O)[C@@H](C)O)C(C)C)[C@@H](C)O
B6: Peptide 144 (SEQ ID NO: 144) (peptide)
peptide: K([γGlu-C18 diacid])CNTATCATQRLAHFL[Aib]HSSNNFGPILPPTNVGSNTY-NH2
modifications: disulfide 2-7; N-terminus assumed
SMILES: CC[C@H](C)[C@H](NC(=O)[C@@H]1CCCN1C(=O)CNC(=O)[C@H](Cc1ccccc1)NC(=O)[C@H](CC(N)=O)NC(=O)[C@H](CC(N)=O)NC(=O)[C@H](CO)NC(=O)[C@H](CO)NC(=O)[C@H](Cc1c[nH]cn1)NC(=O)C(C)(C)NC(=O)[C@H](CC(C)C)NC(=O)[C@H](Cc1ccccc1)NC(=O)[C@H](Cc1c[nH]cn1)NC(=O)[C@H](C)NC(=O)[C@H](CC(C)C)NC(=O)[C@H](CCCNC(=N)N)NC(=O)[C@H](CCC(N)=O)NC(=O)[C@@H](NC(=O)[C@H](C)NC(=O)[C@@H]1CSSC[C@H](NC(=O)[C@@H](N)CCCCNC(=O)CC[C@H](NC(=O)CCCCCCCCCCCCCCCCC(=O)O)C(=O)O)C(=O)N[C@@H](CC(N)=O)C(=O)N[C@@H]([C@@H](C)O)C(=O)N[C@@H](C)C(=O)N[C@@H]([C@@H](C)O)C(=O)N1)[C@@H](C)O)C(=O)N[C@@H](CC(C)C)C(=O)N1CCC[C@H]1C(=O)N1CCC[C@H]1C(=O)N[C@H](C(=O)N[C@@H](CC(N)=O)C(=O)N[C@H](C(=O)NCC(=O)N[C@@H](CO)C(=O)N[C@@H](CC(N)=O)C(=O)N[C@H](C(=O)N[C@@H](Cc1ccc(O)cc1)C(N)=O)[C@@H](C)O)C(C)C)[C@@H](C)O

Biological target: T1, human amylin receptor (calcitonin …)
Experiment: cell-based or functional assay

Compared with B1, B2 is 2.1-fold higher in “EC50 (cAMP production)” value: 285 pM for the first, 592 pM for the second.

First: B3
Second: B4
The “EC50 (cAMP production)” value of the first is 1.8-fold higher: 730 pM for the first, 417 pM for the second.

Going from B5 to B6, the “EC50 (cAMP production)” value falls from 414 pM to 138 pM (3-fold).

First: B1
Second: B2
The “Ratio (EC50 hCTR / EC50 hAMYR3)” value of the first is lower: 3.7 for the first, 11.7 for the second.

First: B3
Second: B4
The “Ratio (EC50 hCTR / EC50 hAMYR3)” value of the first is lower: 3.1 for the first, 4.5 for the second.

First: B5
Second: B6
The “Ratio (EC50 hCTR / EC50 hAMYR3)” value of the first is higher: 9.5 for the first, 5.3 for the second.

Biological target: T2, human calcitonin receptor
Experiment: cell-based or functional assay

Compared with B1, B2 is 6.7-fold higher in “EC50 (cAMP production)” value: 1040 pM for the first, 6940 pM for the second.

B3 and B4 are within 1.5-fold of each other in “EC50 (cAMP production)” value: 2270 pM for the first, 1880 pM for the second.

Compared with B5, B6 is 5.4-fold lower in “EC50 (cAMP production)” value: 3950 pM for the first, 725 pM for the second.
